In patent publication US20140087995A1 (published 2014):
Numbered stars: 1 amine (or outer) side, 2 acyl side, 3 side chain; on linkers, the order of the positions; unused ones are H or OH. Bridge positions count the residues as written; N and C are the ends. Side chains are listed from the residue outwards. Ends that are not written are not given here. * marks the point of attachment. C20 diacid = O=C(O)CCCCCCCCCCCCCCCCCCC(=O)*; γGlu = O=C(O)[C@H](CCC(=O)[*:2])N[*:1]

T1: human amylin receptor (amylin 3(a) receptor: human calcitonin receptor with RAMP-3) (human, UniProt P30988 25-474; O60896 24-148)
T1 construct: whole, on cells; also called hAmylin-R; hAmylinR
T1 sequence (looked up) 1: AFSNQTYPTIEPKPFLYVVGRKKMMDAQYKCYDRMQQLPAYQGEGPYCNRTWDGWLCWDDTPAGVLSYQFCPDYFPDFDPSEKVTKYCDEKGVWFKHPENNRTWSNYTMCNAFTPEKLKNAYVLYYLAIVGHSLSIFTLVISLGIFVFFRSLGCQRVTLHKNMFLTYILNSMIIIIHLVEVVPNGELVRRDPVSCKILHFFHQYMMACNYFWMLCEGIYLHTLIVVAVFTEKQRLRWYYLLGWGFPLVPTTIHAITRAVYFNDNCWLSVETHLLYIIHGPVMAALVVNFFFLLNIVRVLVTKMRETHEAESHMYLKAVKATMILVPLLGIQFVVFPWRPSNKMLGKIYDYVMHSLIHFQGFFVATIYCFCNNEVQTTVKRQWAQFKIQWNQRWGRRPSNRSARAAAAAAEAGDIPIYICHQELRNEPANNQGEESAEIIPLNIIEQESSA
T1 sequence (looked up) 2: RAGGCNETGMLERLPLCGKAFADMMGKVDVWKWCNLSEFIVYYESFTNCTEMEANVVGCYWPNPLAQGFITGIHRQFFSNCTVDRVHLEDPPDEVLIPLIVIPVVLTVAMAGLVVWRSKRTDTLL

B1: N^ε1-[(4S)-4-carboxy-4-(19-carboxynonadecanoylamino)butanoyl]-[His14,Arg17,Pro21,Pro27,Pro31]-h-amylin (peptide)
peptide: K([γGlu-C20 diacid])CNTATCATQRLAHFLRHSSPNFGAIPSSTPVGSNTY-NH2
modifications: disulfide 2-7; N-terminus assumed
SMILES: CC[C@H](C)[C@H](NC(=O)[C@H](C)NC(=O)CNC(=O)[C@H](Cc1ccccc1)NC(=O)[C@H](CC(N)=O)NC(=O)[C@@H]1CCCN1C(=O)[C@H](CO)NC(=O)[C@H](CO)NC(=O)[C@H](Cc1c[nH]cn1)NC(=O)[C@H](CCCNC(=N)N)NC(=O)[C@H](CC(C)C)NC(=O)[C@H](Cc1ccccc1)NC(=O)[C@H](Cc1c[nH]cn1)NC(=O)[C@H](C)NC(=O)[C@H](CC(C)C)NC(=O)[C@H](CCCNC(=N)N)NC(=O)[C@H](CCC(N)=O)NC(=O)[C@@H](NC(=O)[C@H](C)NC(=O)[C@@H]1CSSC[C@H](NC(=O)[C@@H](N)CCCCNC(=O)CC[C@H](NC(=O)CCCCCCCCCCCCCCCCCCC(=O)O)C(=O)O)C(=O)N[C@@H](CC(N)=O)C(=O)N[C@@H]([C@@H](C)O)C(=O)N[C@@H](C)C(=O)N[C@@H]([C@@H](C)O)C(=O)N1)[C@@H](C)O)C(=O)N1CCC[C@H]1C(=O)N[C@@H](CO)C(=O)N[C@@H](CO)C(=O)N[C@H](C(=O)N1CCC[C@H]1C(=O)N[C@H](C(=O)NCC(=O)N[C@@H](CO)C(=O)N[C@@H](CC(N)=O)C(=O)N[C@H](C(=O)N[C@@H](Cc1ccc(O)cc1)C(N)=O)[C@@H](C)O)C(C)C)[C@@H](C)O
notes: also called 62; compound 62
B2: N^ε1-[(4S)-4-carboxy-4-[[(4S)-4-carboxy-4-(19-carboxynonadecanoylamino)butanoyl]amino]butanoyl]-[Asp14,Arg17,Pro21,Pro27,Arg35]-h-amylin (peptide)
peptide: K([γGlu-γGlu-C20 diacid])CNTATCATQRLADFLRHSSPNFGAIPSSTNVGSRTY-NH2
modifications: disulfide 2-7; N-terminus assumed
SMILES: CC[C@H](C)[C@H](NC(=O)[C@H](C)NC(=O)CNC(=O)[C@H](Cc1ccccc1)NC(=O)[C@H](CC(N)=O)NC(=O)[C@@H]1CCCN1C(=O)[C@H](CO)NC(=O)[C@H](CO)NC(=O)[C@H](Cc1c[nH]cn1)NC(=O)[C@H](CCCNC(=N)N)NC(=O)[C@H](CC(C)C)NC(=O)[C@H](Cc1ccccc1)NC(=O)[C@H](CC(=O)O)NC(=O)[C@H](C)NC(=O)[C@H](CC(C)C)NC(=O)[C@H](CCCNC(=N)N)NC(=O)[C@H](CCC(N)=O)NC(=O)[C@@H](NC(=O)[C@H](C)NC(=O)[C@@H]1CSSC[C@H](NC(=O)[C@@H](N)CCCCNC(=O)CC[C@H](NC(=O)CC[C@H](NC(=O)CCCCCCCCCCCCCCCCCCC(=O)O)C(=O)O)C(=O)O)C(=O)N[C@@H](CC(N)=O)C(=O)N[C@@H]([C@@H](C)O)C(=O)N[C@@H](C)C(=O)N[C@@H]([C@@H](C)O)C(=O)N1)[C@@H](C)O)C(=O)N1CCC[C@H]1C(=O)N[C@@H](CO)C(=O)N[C@@H](CO)C(=O)N[C@H](C(=O)N[C@@H](CC(N)=O)C(=O)N[C@H](C(=O)NCC(=O)N[C@@H](CO)C(=O)N[C@@H](CCCNC(=N)N)C(=O)N[C@H](C(=O)N[C@@H](Cc1ccc(O)cc1)C(N)=O)[C@@H](C)O)C(C)C)[C@@H](C)O
notes: also called 52; compound 52
B3: N^ε1-[(4S)-4-carboxy-4-[[(4S)-4-carboxy-4-(19-carboxynonadecanoylamino)butanoyl]amino]butanoyl]-[Asp14,Arg17,Pro21,Pro26,Asp35]-h-amylin (peptide)
peptide: K([γGlu-γGlu-C20 diacid])CNTATCATQRLADFLRHSSPNFGAPLSSTNVGSDTY-NH2
modifications: disulfide 2-7; N-terminus assumed
SMILES: CC(C)C[C@H](NC(=O)[C@H](CCCNC(=N)N)NC(=O)[C@H](CCC(N)=O)NC(=O)[C@@H](NC(=O)[C@H](C)NC(=O)[C@@H]1CSSC[C@H](NC(=O)[C@@H](N)CCCCNC(=O)CC[C@H](NC(=O)CC[C@H](NC(=O)CCCCCCCCCCCCCCCCCCC(=O)O)C(=O)O)C(=O)O)C(=O)N[C@@H](CC(N)=O)C(=O)N[C@@H]([C@@H](C)O)C(=O)N[C@@H](C)C(=O)N[C@@H]([C@@H](C)O)C(=O)N1)[C@@H](C)O)C(=O)N[C@@H](C)C(=O)N[C@@H](CC(=O)O)C(=O)N[C@@H](Cc1ccccc1)C(=O)N[C@@H](CC(C)C)C(=O)N[C@@H](CCCNC(=N)N)C(=O)N[C@@H](Cc1c[nH]cn1)C(=O)N[C@@H](CO)C(=O)N[C@@H](CO)C(=O)N1CCC[C@H]1C(=O)N[C@@H](CC(N)=O)C(=O)N[C@@H](Cc1ccccc1)C(=O)NCC(=O)N[C@@H](C)C(=O)N1CCC[C@H]1C(=O)N[C@@H](CC(C)C)C(=O)N[C@@H](CO)C(=O)N[C@@H](CO)C(=O)N[C@H](C(=O)N[C@@H](CC(N)=O)C(=O)N[C@H](C(=O)NCC(=O)N[C@@H](CO)C(=O)N[C@@H](CC(=O)O)C(=O)N[C@H](C(=O)N[C@@H](Cc1ccc(O)cc1)C(N)=O)[C@@H](C)O)C(C)C)[C@@H](C)O
notes: also called compound 1
B4: N^ε1-[(4S)-4-carboxy-4-[[(4S)-4-carboxy-4-(19-carboxynonadecanoylamino)butanoyl]amino]butanoyl]-[Arg17,Pro21,Pro27,His34]-h-amylin (peptide)
peptide: K([γGlu-γGlu-C20 diacid])CNTATCATQRLANFLRHSSPNFGAIPSSTNVGHNTY-NH2
modifications: disulfide 2-7; N-terminus assumed
SMILES: CC[C@H](C)[C@H](NC(=O)[C@H](C)NC(=O)CNC(=O)[C@H](Cc1ccccc1)NC(=O)[C@H](CC(N)=O)NC(=O)[C@@H]1CCCN1C(=O)[C@H](CO)NC(=O)[C@H](CO)NC(=O)[C@H](Cc1c[nH]cn1)NC(=O)[C@H](CCCNC(=N)N)NC(=O)[C@H](CC(C)C)NC(=O)[C@H](Cc1ccccc1)NC(=O)[C@H](CC(N)=O)NC(=O)[C@H](C)NC(=O)[C@H](CC(C)C)NC(=O)[C@H](CCCNC(=N)N)NC(=O)[C@H](CCC(N)=O)NC(=O)[C@@H](NC(=O)[C@H](C)NC(=O)[C@@H]1CSSC[C@H](NC(=O)[C@@H](N)CCCCNC(=O)CC[C@H](NC(=O)CC[C@H](NC(=O)CCCCCCCCCCCCCCCCCCC(=O)O)C(=O)O)C(=O)O)C(=O)N[C@@H](CC(N)=O)C(=O)N[C@@H]([C@@H](C)O)C(=O)N[C@@H](C)C(=O)N[C@@H]([C@@H](C)O)C(=O)N1)[C@@H](C)O)C(=O)N1CCC[C@H]1C(=O)N[C@@H](CO)C(=O)N[C@@H](CO)C(=O)N[C@H](C(=O)N[C@@H](CC(N)=O)C(=O)N[C@H](C(=O)NCC(=O)N[C@@H](Cc1c[nH]cn1)C(=O)N[C@@H](CC(N)=O)C(=O)N[C@H](C(=O)N[C@@H](Cc1ccc(O)cc1)C(N)=O)[C@@H](C)O)C(C)C)[C@@H](C)O
notes: also called 86; compound 86
B5: N^ε1-[(4S)-4-carboxy-4-(19-carboxynonadecanoylamino)butanoyl]-[His14,Arg17,Pro21,Pro27]-h-amylin (peptide)
peptide: K([γGlu-C20 diacid])CNTATCATQRLAHFLRHSSPNFGAIPSSTNVGSNTY-NH2
modifications: disulfide 2-7; N-terminus assumed
SMILES: CC[C@H](C)[C@H](NC(=O)[C@H](C)NC(=O)CNC(=O)[C@H](Cc1ccccc1)NC(=O)[C@H](CC(N)=O)NC(=O)[C@@H]1CCCN1C(=O)[C@H](CO)NC(=O)[C@H](CO)NC(=O)[C@H](Cc1c[nH]cn1)NC(=O)[C@H](CCCNC(=N)N)NC(=O)[C@H](CC(C)C)NC(=O)[C@H](Cc1ccccc1)NC(=O)[C@H](Cc1c[nH]cn1)NC(=O)[C@H](C)NC(=O)[C@H](CC(C)C)NC(=O)[C@H](CCCNC(=N)N)NC(=O)[C@H](CCC(N)=O)NC(=O)[C@@H](NC(=O)[C@H](C)NC(=O)[C@@H]1CSSC[C@H](NC(=O)[C@@H](N)CCCCNC(=O)CC[C@H](NC(=O)CCCCCCCCCCCCCCCCCCC(=O)O)C(=O)O)C(=O)N[C@@H](CC(N)=O)C(=O)N[C@@H]([C@@H](C)O)C(=O)N[C@@H](C)C(=O)N[C@@H]([C@@H](C)O)C(=O)N1)[C@@H](C)O)C(=O)N1CCC[C@H]1C(=O)N[C@@H](CO)C(=O)N[C@@H](CO)C(=O)N[C@H](C(=O)N[C@@H](CC(N)=O)C(=O)N[C@H](C(=O)NCC(=O)N[C@@H](CO)C(=O)N[C@@H](CC(N)=O)C(=O)N[C@H](C(=O)N[C@@H](Cc1ccc(O)cc1)C(N)=O)[C@@H](C)O)C(C)C)[C@@H](C)O
notes: also called 70; compound 70
B6: N^ε1-[(4S)-4-carboxy-4-[[(4S)-4-carboxy-4-(19-carboxynonadecanoylamino)butanoyl]amino]butanoyl]-[Asp14,Arg17,Pro21,Pro27,Asp35]-h-amylin (peptide)
peptide: K([γGlu-γGlu-C20 diacid])CNTATCATQRLADFLRHSSPNFGAIPSSTNVGSDTY-NH2
modifications: disulfide 2-7; N-terminus assumed
SMILES: CC[C@H](C)[C@H](NC(=O)[C@H](C)NC(=O)CNC(=O)[C@H](Cc1ccccc1)NC(=O)[C@H](CC(N)=O)NC(=O)[C@@H]1CCCN1C(=O)[C@H](CO)NC(=O)[C@H](CO)NC(=O)[C@H](Cc1c[nH]cn1)NC(=O)[C@H](CCCNC(=N)N)NC(=O)[C@H](CC(C)C)NC(=O)[C@H](Cc1ccccc1)NC(=O)[C@H](CC(=O)O)NC(=O)[C@H](C)NC(=O)[C@H](CC(C)C)NC(=O)[C@H](CCCNC(=N)N)NC(=O)[C@H](CCC(N)=O)NC(=O)[C@@H](NC(=O)[C@H](C)NC(=O)[C@@H]1CSSC[C@H](NC(=O)[C@@H](N)CCCCNC(=O)CC[C@H](NC(=O)CC[C@H](NC(=O)CCCCCCCCCCCCCCCCCCC(=O)O)C(=O)O)C(=O)O)C(=O)N[C@@H](CC(N)=O)C(=O)N[C@@H]([C@@H](C)O)C(=O)N[C@@H](C)C(=O)N[C@@H]([C@@H](C)O)C(=O)N1)[C@@H](C)O)C(=O)N1CCC[C@H]1C(=O)N[C@@H](CO)C(=O)N[C@@H](CO)C(=O)N[C@H](C(=O)N[C@@H](CC(N)=O)C(=O)N[C@H](C(=O)NCC(=O)N[C@@H](CO)C(=O)N[C@@H](CC(=O)O)C(=O)N[C@H](C(=O)N[C@@H](Cc1ccc(O)cc1)C(N)=O)[C@@H](C)O)C(C)C)[C@@H](C)O
notes: also called compound 2

These binders were tested against T1, human amylin receptor (amylin 3(a) …) (assay: SPA displacement of 125I-rat amylin, hAmylin 3(a) receptor membranes).
Procedure, shortened: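 Membranes from BHK Amylin 3(a)/CRE-luc cells (35 ng/μL final) were mixed with SPA beads and test compounds in 50 mM Hepes pH 7.4 with 1 mM CaCl2, 5 mM MgCl₂, 0.1% OA and 0.02% Tween20. Incubation ran 120 min at 25° C with shaking; IC₅₀ came from one-site competition fitting.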

IC50	Binder
0.098 nM	B1
0.697 nM	B2
1.18 nM	B3
0.833 nM	B4
0.169 nM	B5
0.411 nM	B6
